Key:
[1] = target: T1, Human PD-1-ECD protein (mouse IgG2a Fc tag) (human, UniProt Q15116 25-170); assay: bridging ELISA, coated CD40 ECD-His, soluble PD-1 ECD-mFc
T1 construct: extracellular domain; also called soluble human recombinant PD-1; not shown: mouse IgG2a Fc tag
Experimental: (§1) Briefly, human CD40 ECD protein (His tag) was diluted and coated onto an ELISA plate with a volume of […] by incubation at 4° C. overnight. […] After 1-hour incubation at room temperature, HRP-conjugated anti-Mouse IgG (H+L) antibody was added into the plate at 100 μL/well. The plate was incubated for 1 hour at room temperature followed by washing. TMB substrate solution was added at 100 μL/well and the color development was stopped by adding 100 uL/well Stop Solution (2N H2SO4). Absorbance at 450 nm and 620 nm was read by Tecan F200 Pro plate reader. GraphPad 7.0, “[Agonist] vs. response—Variable slope (four parameters)” was used to plot the binding data and calculate binding EC50 values.

[2] = target: T2, Ly090 (human CD40 ECD protein with His tag) (human, UniProt P25942 21-193); assay: as above
T2 construct: extracellular domain; also called human CD40 ECD protein (His tag); recombinant human CD40; not shown: His tag
T2 sequence (P25942 21-193): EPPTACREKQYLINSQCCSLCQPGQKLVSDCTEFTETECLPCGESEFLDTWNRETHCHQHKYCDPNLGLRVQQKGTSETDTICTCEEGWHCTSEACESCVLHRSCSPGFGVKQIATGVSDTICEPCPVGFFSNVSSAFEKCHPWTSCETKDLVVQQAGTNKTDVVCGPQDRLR
Experimental: as §1

[3] = target: T3, human PD-1 expressed on CHO cells (human, UniProt Q15116 25-288); assay: FACS, CHO cells
T3 construct: whole, on cells; also used for human PD-1 on Jurkat reporter cells; also called Jurkat/NFkB-Luci/PD-1 cells
T3 sequence (Q15116 25-288): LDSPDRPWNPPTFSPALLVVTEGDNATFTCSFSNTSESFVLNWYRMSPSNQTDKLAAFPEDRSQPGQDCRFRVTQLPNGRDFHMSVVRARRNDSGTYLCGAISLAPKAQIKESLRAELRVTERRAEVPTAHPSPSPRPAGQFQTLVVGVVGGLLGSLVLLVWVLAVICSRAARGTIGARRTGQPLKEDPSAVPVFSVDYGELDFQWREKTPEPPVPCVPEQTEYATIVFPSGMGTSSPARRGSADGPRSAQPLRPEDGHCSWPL

[4] = target: T4, human CD40 expressed on CHO cells (human, UniProt P25942 21-277); assay: FACS, CHO cells
T4 construct: whole, on cells; also used for the reporter cells over-expressing human CD40; also called cellular CD40; CHO-CD40 cells
T4 sequence (P25942 21-277): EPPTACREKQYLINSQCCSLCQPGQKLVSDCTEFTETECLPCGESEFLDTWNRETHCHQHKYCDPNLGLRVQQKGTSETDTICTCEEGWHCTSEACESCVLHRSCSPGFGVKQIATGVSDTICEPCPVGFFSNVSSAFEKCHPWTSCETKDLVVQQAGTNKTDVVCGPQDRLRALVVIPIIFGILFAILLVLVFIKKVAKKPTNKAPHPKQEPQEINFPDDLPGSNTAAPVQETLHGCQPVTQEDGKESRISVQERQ

[5] = target: T5, Human CD40 ECD protein (mouse IgG2a Fc tag) (human, UniProt P25942 21-193); assay: bridging ELISA, coated B7H3-His, soluble CD40-msFc
T5 construct: extracellular domain; also called Human CD40-msFc; human recombinant CD40; not shown: mouse IgG2a Fc tag
T5 sequence (P25942 21-193): as the sequence (P25942 21-193) above
Experimental: Anti-B7H3/CD40 bi-specific antibodies were analyzed by ELISA for their simultaneous binding to recombinant human B7H3 and human CD40. Briefly, Human B7H3 CD protein (His-tag) was diluted and coated onto an ELISA plate with a volume of […] by incubation at 4° C. overnight. The next day, the plate was blocked with PBST-BSA buffer, then serially diluted samples of anti-B7H3/CD40 bi-specific antibodies were pipetted into appropriate wells at 50 μL/well, and the plate was incubated for 1 h followed by washing. Human CD40-msFc antibody was added into the plate at 50 μL/well. After 1-hour incubation at room temperature, […] anti-Mouse IgG (H+L) antibody was added into the plate at 100 μL/well. The plate was incubated for 1 hour at room temperature followed by washing. TMB substrate solution was added at 100 p L/well and the color development was stopped by adding 100 uUwell Stop Solution (2N H2SO4). Absorbance at 450 nm and 620 nm was read by Tecan F200 Pro plate reader. GraphPad 7.0, “[Agonist] vs. response—Variable slope (four parameters)” was used to plot the binding data and calculate binding EC50 values.

Measured: binding result

T1 sequence (Q15116 25-170): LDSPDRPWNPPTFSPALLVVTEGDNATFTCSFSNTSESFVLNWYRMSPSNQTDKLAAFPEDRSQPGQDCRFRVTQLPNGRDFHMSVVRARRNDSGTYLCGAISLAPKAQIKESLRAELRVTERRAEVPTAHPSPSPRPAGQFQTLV

B1: Ly517 (bispecific antibody, human IgG1, kappa)
heavy: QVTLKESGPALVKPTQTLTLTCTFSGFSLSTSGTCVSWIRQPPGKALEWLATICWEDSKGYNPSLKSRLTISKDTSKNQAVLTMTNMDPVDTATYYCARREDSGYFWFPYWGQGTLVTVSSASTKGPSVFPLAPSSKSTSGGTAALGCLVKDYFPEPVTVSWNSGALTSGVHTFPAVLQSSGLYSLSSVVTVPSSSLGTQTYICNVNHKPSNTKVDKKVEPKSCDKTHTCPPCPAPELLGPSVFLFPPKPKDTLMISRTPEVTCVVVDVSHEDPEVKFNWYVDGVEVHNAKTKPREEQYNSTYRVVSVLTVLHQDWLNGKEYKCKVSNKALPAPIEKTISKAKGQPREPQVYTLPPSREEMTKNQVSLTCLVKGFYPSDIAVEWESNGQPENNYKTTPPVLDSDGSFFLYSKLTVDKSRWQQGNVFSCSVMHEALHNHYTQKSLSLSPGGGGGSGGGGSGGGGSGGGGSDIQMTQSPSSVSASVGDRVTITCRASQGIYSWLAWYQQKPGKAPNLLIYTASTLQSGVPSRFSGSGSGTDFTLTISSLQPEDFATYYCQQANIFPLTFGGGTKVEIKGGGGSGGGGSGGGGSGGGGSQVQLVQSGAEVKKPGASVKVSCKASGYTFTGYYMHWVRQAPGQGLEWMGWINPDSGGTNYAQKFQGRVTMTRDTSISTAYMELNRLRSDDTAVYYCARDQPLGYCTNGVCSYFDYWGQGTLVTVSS
light: NIQMTQSPSSLSASVGDRVTITCKAGQNVNNYLAWYQQKPGKAPKVLIFNANSLQTGVPSRFSGSGSGTDFTLTISSLQPEDFATYYCQQYNSWPTFGGGTKVEIKRTVAAPSVFIFPPSDEQLKSGTASVVCLLNNFYPREAKVQWKVDNALQSGNSQESVTEQDSKDSTYSLSSTLTLSKADYEKHKVYACEVTHQGLSSPVTKSFNRGEC
notes: Ly516 HC (IgG1 mutated Fc)-Ly253 scFv VL-VH + Ly516 LC
binds: [1] | [2] | [3] | [4]

B2: Ly518 (bispecific antibody, human IgG1, kappa)
heavy: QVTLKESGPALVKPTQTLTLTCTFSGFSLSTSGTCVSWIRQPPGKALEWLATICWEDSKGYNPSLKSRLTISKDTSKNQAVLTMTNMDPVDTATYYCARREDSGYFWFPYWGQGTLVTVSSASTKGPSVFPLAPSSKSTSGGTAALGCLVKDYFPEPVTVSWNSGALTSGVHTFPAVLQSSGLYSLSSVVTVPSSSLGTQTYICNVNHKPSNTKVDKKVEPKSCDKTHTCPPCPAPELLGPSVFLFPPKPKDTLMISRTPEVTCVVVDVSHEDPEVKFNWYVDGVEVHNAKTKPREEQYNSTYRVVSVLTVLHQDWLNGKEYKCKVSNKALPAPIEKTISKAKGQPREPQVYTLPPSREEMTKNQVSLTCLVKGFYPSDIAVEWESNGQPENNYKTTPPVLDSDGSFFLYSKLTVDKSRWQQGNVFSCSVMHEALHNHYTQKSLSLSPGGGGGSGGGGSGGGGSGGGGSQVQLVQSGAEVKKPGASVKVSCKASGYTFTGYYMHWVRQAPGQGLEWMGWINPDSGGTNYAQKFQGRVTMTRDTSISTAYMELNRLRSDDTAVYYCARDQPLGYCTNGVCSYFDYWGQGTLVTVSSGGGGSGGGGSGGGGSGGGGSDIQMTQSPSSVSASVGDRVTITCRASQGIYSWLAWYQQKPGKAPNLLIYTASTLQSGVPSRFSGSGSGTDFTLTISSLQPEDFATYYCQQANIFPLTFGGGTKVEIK
light: NIQMTQSPSSLSASVGDRVTITCKAGQNVNNYLAWYQQKPGKAPKVLIFNANSLQTGVPSRFSGSGSGTDFTLTISSLQPEDFATYYCQQYNSWPTFGGGTKVEIKRTVAAPSVFIFPPSDEQLKSGTASVVCLLNNFYPREAKVQWKVDNALQSGNSQESVTEQDSKDSTYSLSSTLTLSKADYEKHKVYACEVTHQGLSSPVTKSFNRGEC
notes: Ly516 HC (IgG1 mutated Fc)-Ly253 scFv VH-VL + Ly516 LC
binds: [1] | [2] | [3] | [4]

B3: Ly519 (bispecific antibody, human IgG1, kappa)
heavy: QVTLKESGPALVKPTQTLTLTCTFSGFSLSTSGTCVSWIRQPPGKALEWLATICWEDSKGYNPSLKSRLTISKDTSKNQAVLTMTNMDPVDTATYYCARREDSGYFWFPYWGQGTLVTVSSASTKGPSVFPLAPSSKSTSGGTAALGCLVKDYFPEPVTVSWNSGALTSGVHTFPAVLQSSGLYSLSSVVTVPSSSLGTQTYICNVNHKPSNTKVDKKVEPKSCDKTHTCPPCPAPELLGPSVFLFPPKPKDTLMISRTPEVTCVVVDVSHEDPEVKFNWYVDGVEVHNAKTKPREEQYNSTYRVVSVLTVLHQDWLNGKEYKCKVSNKALPAPIEKTISKAKGQPREPQVYTLPPSREEMTKNQVSLTCLVKGFYPSDIAVEWESNGQPENNYKTTPPVLDSDGSFFLYSKLTVDKSRWQQGNVFSCSVMHEALHNHYTQKSLSLSPGK
light: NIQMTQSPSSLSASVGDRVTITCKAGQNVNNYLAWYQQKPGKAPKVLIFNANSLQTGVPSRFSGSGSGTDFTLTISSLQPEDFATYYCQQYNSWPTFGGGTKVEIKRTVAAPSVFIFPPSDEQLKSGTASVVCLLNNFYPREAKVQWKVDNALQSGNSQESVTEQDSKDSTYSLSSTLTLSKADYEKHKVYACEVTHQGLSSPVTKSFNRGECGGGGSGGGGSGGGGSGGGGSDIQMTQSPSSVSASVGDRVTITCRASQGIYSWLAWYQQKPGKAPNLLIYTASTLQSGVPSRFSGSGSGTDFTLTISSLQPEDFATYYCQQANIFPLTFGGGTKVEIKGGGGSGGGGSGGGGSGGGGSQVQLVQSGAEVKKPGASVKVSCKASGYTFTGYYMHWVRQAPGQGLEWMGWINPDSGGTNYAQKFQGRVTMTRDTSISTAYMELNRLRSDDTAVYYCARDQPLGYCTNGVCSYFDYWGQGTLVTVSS
notes: Ly516 HC (IgG1 mutated Fc) + Ly516 LC-Ly253 scFv VL-VH
binds: [1] | [2] | [3] | [4]

B4: Ly617 (bispecific antibody, human IgG1, kappa)
heavy: QVQLQQPGAELVKPGASVKLSCKASGYTFTSYWMHWVKQRPGQGLEWIGMIHPNSGGTNYNEKFKGKGTLTVDKSSSTAYMQLSSLTSDDSAVYYCVTSQATWFAYWGQGTLVTVSAASTKGPSVFPLAPSSKSTSGGTAALGCLVKDYFPEPVTVSWNSGALTSGVHTFPAVLQSSGLYSLSSVVTVPSSSLGTQTYICNVNHKPSNTKVDKKVEPKSCDKTHTCPPCPAPELLGPSVFLFPPKPKDTLMISRTPEVTCVVVDVSHEDPEVKFNWYVDGVEVHNAKTKPREEQYNSTYRVVSVLTVLHQDWLNGKEYKCKVSNKALPAPIEKTISKAKGQPREPQVYTLPPSREEMTKNQVSLTCLVKGFYPSDIAVEWESNGQPENNYKTTPPVLDSDGSFFLYSKLTVDKSRWQQGNVFSCSVMHEALHNHYTQKSLSLSPGGGGGSGGGGSGGGGSGGGGSEVQLVESGGGLVQPGGSLRLSCAASGFTFTNYGLHWVRQAPGKGLEWVSSISPSGGVTYYRDSVKGRFTISRDNSKNTLYLQMNSLRAEDTAVYYCAKPFLGWGGANWIAHWGQGTLVTVSSGGGGSGGGGSGGGGSGGGGSDIQMTQSPSSLSASVGDRVTITCLASEDISNDLAWYQQKPGKAPKLLIYFVDRLLDGVPSRFSGSGSGTDFTLTISSLQPEDFATYYCQQSYKYPPTFGQGTKLEIK
light: ENVLTQSPAIMSVSPGEKVTMTCRASSSVSSSYLHWYQQKSGASPKFWIYSTSNLASGVPARFSGSGSGTSYSLTISSVEAEDAATYYCQHYSGYPLTFGAGTKLELRRTVAAPSVFIFPPSDEQLKSGTASVVCLLNNFYPREAKVQWKVDNALQSGNSQESVTEQDSKDSTYSLSSTLTLSKADYEKHKVYACEVTHQGLSSPVTKSFNRGEC
notes: Ly387 HC (IgG1 mutated Fc)-TM559 scFv VH-VL + Ly387 LC
binds: [4] | [5]

Reference: US20220372155A1 (LYVGEN BIOPHARMA, published 2022)
